Holding throughout (type): biochemical
Substrate in data set [1]: NCc1ccc(F)cc1
The data set is described as follows: Kinetic parameters, mouse SSAO/VAP-1. The settings on record: other: Mouse SSAO/VAP-1. The protocol:
(§1) The continuous spectrophotometric detection of SSAO-dependent H2O2 production based on a peroxidase-coupled reaction was performed as previously described by Abella et al. (2004, Diabetologia 47: 429-438) and following the procedure described by Holt et al., (1997, Anal. Biochem. 244: 384-392).
(§2) Compounds listed in Table 1 were prepared according to the methods described above, purity was determined by HPLC at 220 nm, molecular weight calculated by mass spectrometer. Human and mouse SSAO activity was determined by detecting the production of hydrogene peroxide in the presence of the different compounds present at 1 mM for human and 100 μM for mice activity measurements. Compounds in Table 2″ were similarly assayed. Values are means of percentages relative to benzylamine-related hydrogen production. Kinetic Parameters for select compounds are set forth in Table 3 (Mouse SSAO) and Table 4 (Human SSAO).

Substrate in data set [2]: NCCc1ccc(F)cc1
Description: Kinetic parameters, mouse SSAO/VAP-1. The settings on record: other: Mouse SSAO/VAP-1. The protocol: as §1, §2

Substrate in data set [3]: NCCCc1ccccc1
Description: Kinetic parameters, mouse SSAO/VAP-1. The settings on record: other: Mouse SSAO/VAP-1. The protocol: as §1, §2

Substrate in data set [4]: NCCc1ccccc1
Description: Kinetic parameters, mouse SSAO/VAP-1. The settings on record: other: Mouse SSAO/VAP-1. How it is done:
as §1, §2

Substrate in data set [5]: NCCCCc1ccccc1
Description: Kinetic parameters, mouse SSAO/VAP-1. The settings on record: other: Mouse SSAO/VAP-1. The protocol:
as §1, §2

Substrate in data set [6]: NCc1ccccc1
The data set is described as follows: Kinetic parameters, mouse SSAO/VAP-1. The settings on record: other: Mouse SSAO/VAP-1. The protocol: as §1, §2

Substrate in data set [7]: NCc1ccc(F)cc1
Description: Kinetic parameters, human SSAO/VAP-1. The settings on record: other: Human SSAO/VAP-1. The protocol: as §1, §2

Substrate in data set [8]: NCCc1ccc(F)cc1
The data set is described as follows: Kinetic parameters, human SSAO/VAP-1. The settings on record: other: Human SSAO/VAP-1. How it is done:
as §1, §2

Substrate in data set [9]: NCCCc1ccccc1
Description: Kinetic parameters, human SSAO/VAP-1. The settings on record: other: Human SSAO/VAP-1. How it is done: as §1, §2

Substrate in data set [10]: NCCc1ccccc1
Description: Kinetic parameters, human SSAO/VAP-1. The settings on record: other: Human SSAO/VAP-1. The protocol:
as §1, §2

Substrate in data set [11]: NCCCCc1ccccc1
The data set is described as follows: Kinetic parameters, human SSAO/VAP-1. The settings on record: other: Human SSAO/VAP-1. The protocol:
as §1, §2

Substrate in data set [12]: NCc1ccccc1
The data set is described as follows: Kinetic parameters, human SSAO/VAP-1. The settings on record: other: Human SSAO/VAP-1. How it is done:
as §1, §2

This is an account of results in patent US20070066682A1, “Arylalkylamine vanadium (V) salts for the treatment and/or prevention of Diabetes mellitus” (priority 2005, published 2007).

In general, Km refers to the substrate concentration at which the rate is half of its maximum. The kcat/Km is the second-order rate constant that governs catalysis at low substrate concentration. Broadly, the Vmax is the top rate of the reaction or transport when substrate is in excess. By kcat is commonly meant the number of substrate molecules converted per active site and unit of time at saturation.

B1: Mouse SSAO/VAP-1 (Mus musculus) (protein)
chain: MTQKTTLVLLALAVITIFALVCVLLAGRSGDGGGLSQPLHCPSVLPSVQPRTHPSQSQPFADLSPEELTAVMSFLTKHLGPGLVDAAQARPSDNCVFSVELQLPAKAAALAHLDRGGPPPVREALAIIFFGGQPKPNVSELVVGPLPHPSYMRDVTVERHGGPLPYYRRPVLDREYQDIEEMIFHRELPQASGLLHHCCFYKHQGQNLLTMTTAPRGLQSGDRATWFGLYYNLSGAGFYPHPIGLELLIDHKALDPALWTIQKVFYQGRYYESLTQLEDQFEAGLVNVVLVPNNGTGGSWSLKSSVPPGPAPPLQFHPQGPRFSVQGSQVSSSLWAFSFGLGAFSGPRIFDIRFQGERVAYEISVQEAIALYGGNSPASMSTCYVDGSFGIGKYSTPLIRGVDCPYLATYVDWHFLLESQAPKTLRDAFCVFEQNQGLPLRRHHSDFYSHYFGGVVGTVLVVRSVSTLLNYDYIWDMVFHPNGAIEVKFHATGYISSAFFFGAGEKFGNRVGAHTLGTVHTHSAHFKVDLDVAGLKNWAWAEDMAFVPTIVPWQPEYQMQRLQVTRKLLETEEEAAFPLGGATPRYLYLASNHSNKWGHRRGYRIQILSFAGKPLPQESPIEKAFTWGRYHLAVTQRKEEEPSSSSIFNQNDPWTPTVNFTDFISNETIAGEDLVAWVTAGFLHIPHAEDIPNTVTAGNSVGFFLRPYNFFDEDPSFHSADSIYFREGQDATACEVNPLACLSQTATCAPEIPAFSHGGFAYRDN
With B1, the Km in data set [1] came to 29.1 ± 4.8 µM; in data set [2] it was 31 ± 10 µM; in [3], 10 ± 1.2 µM; in [4] it was 4.8 ± 13 µM; in [5], 8.8 ± 2.9 µM; in [6], 27.5 ± 9.9 µM. In addition, the kcat/Km in [1] was determined as 1490 M⁻¹ s⁻¹; in data set [2], 488 M⁻¹ s⁻¹; in [3], 1670 M⁻¹ s⁻¹; in data set [4], 3040 M⁻¹ s⁻¹; in data set [5] it was 3910 M⁻¹ s⁻¹; in data set [6], 3780 M⁻¹ s⁻¹.

B2: Human SSAO/VAP-1 (Homo sapiens) (protein)
chain: MNQKTILVLLILAVITIFALVCVLLVGRGGDGGEPSQLPHCPSVSPSAQPWTHPGQSQLFADLSREELTAVMRFLTQRLGPGLVDAAQARPSDNCVFSVELQLPPKAAALAHLDRGSPPPAREALAIVFFGRQPQPNVSELVVGPLPHPSYMRDVTVERHGGPLPYHRRPVLFQEYLDIDQMIFNRELPQASGLLHHCCFYKHRGRNLVTMTTAPRGLQSGDRATWFGLYYNISGAGFFLHHVGLELLVNHKALDPARWTIQKVFYQGRYYDSLAQLEAQFEAGLVNVVLIPDNGTGGSWSLKSPVPPGPAPPLQFYPQGPRFSVQGSRVASSLWTFSFGLGAFSGPRIFDVRFQGERLVYEISLQEALAIYGGNSPAAMTTRYVDGGFGMGKYTTPLTRGVDCPYLATYVDWHFLLESQAPKTIRDAFCVFEQNQGLPLRRHHSDLYSHYFGGLAETVLVVRSMSTLLNYDYVWDTVFHPSGAIEIRFYATGYISSAFLFGATGKYGNQVSEHTLGTVHTHSAHFKVDLDVAGLENWVWAEDMVFVPMAVPWSPEHQLQRLQVTRKLLEMEEQAAFLVGSATPRYLYLASNHSNKWGHPRGYRIQMLSFAGEPLPQNSSMARGFSWERYQLAVTQRKEEEPSSSSVFNQNDPWAPTVDFSDFINNETIAGKDLVAWVTAGFLHIPHAEDIPNTVTVGNGVGFFLRPYNFFDEDPSFYSADSIYFRGDQDAGACEVNPLACLPQAAACAPDLPAFSHGGFSHN
As to B2, the Michaelis constant (Km) came out at 647 ± 32 µM in data set [7]; 2805 ± 613 µM in [8]; 1339 ± 140 µM in data set [9]; 2918 ± 1910 µM in [10]; 430 ± 110 µM in data set [11]; 277 ± 33 µM in data set [12]. For the same protein, the Vmax in [7] came out at 0.27 µmol/min/mg; in data set [8], 0.263 µmol/min/mg; in data set [9] it was 0.156 µmol/min/mg; in data set [10] it was 0.05 µmol/min/mg; in data set [11], 0.577 µmol/min/mg; in data set [12], 0.294 µmol/min/mg. Moreover, the kcat came out at 0.39 s⁻¹ in data set [7]; 0.38 s⁻¹ in data set [8]; 0.22 s⁻¹ in data set [9]; 0.07 s⁻¹ in data set [10]; 0.83 s⁻¹ in data set [11]; 0.42 s⁻¹ in [12]. Besides, the kcat/Km stood at 600 M⁻¹ s⁻¹ in data set [7]; 135 M⁻¹ s⁻¹ in data set [8]; 168 M⁻¹ s⁻¹ in [9]; 25 M⁻¹ s⁻¹ in data set [10]; 1930 M⁻¹ s⁻¹ in data set [11]; 1530 M⁻¹ s⁻¹ in data set [12].
